# Experimental data from paper PMC7173960 (eLife, 2020).
# Like-named read-outs stand apart in the source and are kept apart here.
# B1: SBV Gc head domain (SBV-Gc_(head)) (domain or fragment)
# chain: INCKNIQSTQLTIEHLSKCMAFYQNKTSSPVVINEIISDASVDEQELIKSLNLNCNVIDRFISESSVIETQVYYEYIKSQLCPLQVHDIFTINSASNIQWKALARSFTLGVCNTNPHKHICRCLESMQMCTSTKTDHAREMSIYYDGHPDRFEHDMKIILNIMRYIVPGLGRVLLDQIKQTKDYQALRHIQGKLSPKSQSNLQLKGFLEFVDFILGANVTIEKTPQTLTTLSLI
# notes: not shown: Twin Strep-tag, C-terminal, kept
# Tests used:
# [1] = target: T1, RVFV Gn ectodomain (RVFV-Gn_(ecto)) (Rift Valley fever virus, Clone 13, UniProt A2T080); experiment: ELISA; conditions: both partners purified
# [2] = target: RVFV-Gn head domain (Rift Valley fever virus, Clone 13, UniProt A2T080); experiment: ELISA; conditions: both partners purified
# [3] = target: RVFV-Gn subdomain B (Rift valley fever virus (RVFV).); experiment: ELISA; conditions: both partners purified
# [4] = target: T1, RVFV Gn ectodomain (RVFV-Gn_(ecto))
# [5] = target: B1; experiment: ELISA; competition ELISA: antigen on Strep-Tactin microplates; competing VHH at 11.11 µg/ml, 1 hr RT, then HRP-conjugated analyte VHH, 1 hr RT; competition as percentage of blocking, above 50% counted as efficient; conditions: both partners purified
# [6] = target: T2, SB10-ELP2ABD-SB10 (Lama glama); experiment: ELISA; […] (25 mM Tris-HCl, 2 mM EDTA, 140 mM NaCl, pH 7.6, […]; conditions: both partners purified
# T2 construct: also called bivalent ELP-based VHH complex; copies: + +
binder,measurement,setting,value
"RV136 (VHH, source: S. cerevisiae, purified from the culture supernatant (IMAC, Ni-NTA)) VHH: QVQLQESGGGLVQAGGSLRLSCAASGRTFSRNTMGWFRQAPGKEREFVAAITGGGSTYYADSLKGRFTISRDNAKNTLYLQMNSLKPEDTAIYYCAQYKSSIYFIDYYLRIGDNYDYWGQGTQVTVSS",binding result,[1],binds
same,binding result,[2],binds
same,binding result,[3],binds
RV124 (VHH) VHH: QVQLQQSGGGLVQPGGSLRLSCAASGIISSIYAMGWYRQAPGKQRELVATAGRVTNYADSVKDRFTISRDNAKNTVYLQMNSLKPEDTAVYYCNARNRLTDDNYWGQGTQVTVSS,binding result,[4],binds
RV145 (VHH) VHH: QVQLQESGGGLVQAGASLRLSCAASGLTFSSYRMGWFRQAPGKEREFVSAINWSGGNTYYADSLKGRFTISRDNAKNTVYLQMNSLKPEDTAVYYCASQWRLSGVDPLRAHEYEYWGQGTQVTVSS,binding result,[4],binds
"SB9 (VHH, source: S. cerevisiae, purified from the culture supernatant (IMAC, Ni-NTA)) VHH: QVQLQESGGGLVQPGGSLRLSCAASGFTFGSYDMSWVRQAPGKGPEWVSGINSGAISTYYADSVKGRFTISRDNAKNTLYLQMNSLKPEDTAVYYCAKADLDKMMEMVAGRPFLPHDPNFGSWGQGTQVTVSS",binding result,[5],binds
"SB13 (VHH, source: S. cerevisiae, purified from the culture supernatant (IMAC, Ni-NTA)) VHH: QVQLQESGGGLVQAGDSLRLSCAVSGRTVSSNVMAWFRQAPGKEREAVAFIDSGSGGWPYYSDSVKGRFTISRDNAKNMVYLQMDSLIPEDTAVYYCAADSAVYSRSSRWWLRASSYSYWGQGTQVTVSS",binding result,[5],binds
RV141 (VHH) VHH: QVQLQQSGGGLVQAGGSLRLSCAASGRTFSRYRMGWFRQAPGKEREFVAAINWSGGRTYYVDSMEGRFTISRDNAKNTVYLQMNSLKPEDTAVYRCAAQDRLTGNVYYHEEYDYWGQGTQVTVSS,binding result,[4],binds
"RV150 (VHH, also called VHH RV150; source: S. cerevisiae, purified from the culture supernatant (IMAC, Ni-NTA)) VHH: QVQLQESGGGLVQAGGSLRLSCAASGRTLSSYAMGWFRQAPGKEREFVGAISWSGPMLYYGDSAKGRFTISRDNAKNTVYLQMNTLKPEDTAVYYCAAANRLTAEGWQQGYNYDYWGQGTQVTVSS",binding result,[2],binds
RV152 (VHH) VHH: QVQLQESGGGLVQAGGSLRLSCAASGRTASSYATGWFRQAPGKEREFVAAIMWSASITHYTDSVKGRFTISRDNAKNTVYLQMNSLKPEDTAVYYCAASKGIIATQAISAYDYWGQGTQVTVSS,binding result,[4],binds
"RV104 (VHH, also called VHH RV104; source: S. cerevisiae, purified from the culture supernatant (IMAC, Ni-NTA)) VHH: QVQLQESGGGLVQAGGSLRLSCTASGRTNSNYFMTWFRQAPGKEREFVAIINHITGSTEYVDSVKGRFIISRDNAKNTVYLQMDSLKPEDTAVYYCASGRIYSAIPGLYDYWGQGTRVTVSS",binding result,[1],binds
same,binding result,[2],binds
same,binding result,[3],binds
RV126 (VHH) VHH: QVQLQESGGGLVQPGGSLRLSCAASGSIFRFNAMGWYRQAPGNQRDQQRELVAVATNHGTTNYADSVKGRFTISRDNAKNTVALQMNSLKPEDTAVYYCNIRNRLTGDDYWGQGTQVTVSS,binding result,[4],binds
RV110 (VHH) VHH: QVQLQESGGGLVQAGGSLRLSCVASGRSFSTSAMGWFRQTPGKEREFVAAISTSGRPTYYADSVKGRGTISRDNAKATVYLEMNSLKPEDTAAYYCAAGMRPRLTGDYYSTDEYDYWGQGTQVTVSS,binding result,[4],binds
"RV148 (VHH, source: S. cerevisiae, purified from the culture supernatant (IMAC, Ni-NTA)) VHH: QVQLQQSGGGLVQAGDSLRVSCAASGRTFSSYVLAWFRQAPGKEREFVAVVGWTGARKEYTDSVKGRFTISRDNAKNTVYLQMNSLKPEDTAVYYCAAGRYYIADGSLYDFWGQGTQVTVSS",binding result,[1],binds
same,binding result,[2],binds
same,binding result,[3],binds
"SB10 (VHH, source: S. cerevisiae, purified from the culture supernatant (IMAC, Ni-NTA)) VHH: QVQLQESGGGLVQAGDSLRVSCAASGRTLRNYHVGWFRQAPGKDREFVAAVSWDDSTYYTESVKGRFTISRDNANNTVYLQMNSLKPEDTAVYYCAADRGSVPFYSDFLRGRYEYGGQGTQVTVSS",binding result,[5],binds
RV139 (VHH) VHH: QVQLQESGGGLVQAGGSLRLSCAASGPTFSRVTTMGWFRQAPGKDREFVGAISWSDGITYYADSVKGRFTISRDNAKNTMFLQMNSLKPEDTAVYYCGAKIHGGSWFPNYEQYEGMYDFWGQGTQVTVSS,binding result,[4],binds
RV108 (VHH) VHH: QVQLQESGGGLVQAGGSLRLSCVASGRTPSRFFMAWFRQSPGKEREFVARINWGGGNTYYADSVKSRFTISMNNARNTAYLQMNNLKPEDTAVYICAANSDLETNVASLYDYWGQGTQVTVSS,binding result,[4],binds
"RV107 (VHH, also called VHH RV107; source: S. cerevisiae, purified from the culture supernatant (IMAC, Ni-NTA)) VHH: QVQLQESGGGLVQAGGSLRLSCTASGRTFDGVNMAWFRQIPGKEREFVATTLWRGNVPYYTDSVEGRFTISSDNAKNTGYLQMNSLKPEDTAVYYCAARTGSTFLSSALAQSEAVYSIWGQGTQVTVSS",binding result,[1],binds
same,binding result,[2],binds
"SB11 (VHH, source: S. cerevisiae, purified from the culture supernatant (IMAC, Ni-NTA)) VHH: QVQLQESGGGMVQAGGSLRLSCAASGRTFRGYGMGWWRQAPGQERDIVAWIRWSDSTGFYIDSVKGRFTISSDNAKNTVYLQMNSLKVEDTAVYYCAAARGTTGWGAVEDRYWGQGAQVTVSS",binding result,[5],binds
RV134 (VHH) VHH: QVQLQESGGGLVQAGGSLRLSCAASGLTFAFYTVGWFRQAPGKEREFVGGIIWAGGRTSYADSVKGRFTISRDNAENTVYLQMNSLRPEDTAVYYCAAKNRLTSTNEYDFWGQGTQVTVSS,binding result,[4],binds
"SB12 (VHH, source: S. cerevisiae, purified from the culture supernatant (IMAC, Ni-NTA)) VHH: QVQLQQSGGGLVQAGGSLRLSCAASGRKISSLTIYGMGWFRQAPGKEREFVAAISQAGGTTSYADSIKDRFTISRDNDKNTAYLQMNNLKPEDTAVYYCAADFLPRIISRRYSDYEYWGQGAQVTVSS",binding result,[5],binds
"SB14 (VHH, source: S. cerevisiae, purified from the culture supernatant (IMAC, Ni-NTA)) VHH: QVQLQQSGGGLVQAGGSLRLSCTASGRTFSTYVMGWFRQAPGKEREFVGAISWSGGSTVYADSVKGRFTISRDDAKNTVYLQMNSLKPEDTAVYYCAADDSSWYLVLDAYEYDYWGQGTQVTVSS",binding result,[5],binds
RV106 (VHH) VHH: QVQLQESGGGLVQAGGSLRLSCAASGLTFSSYAMGWFRQAPGKEREFVASSSRIEGIIDYADSVKGRFTISRDNAKNTVYLQMDSLKPEDTAVYFCAATRAIIAGRSRSAYDYWGQGTQVTVSS,binding result,[4],binds
B1,binding result,[6],binds
"RV115 (VHH, also called VHH RV115; source: S. cerevisiae, purified from the culture supernatant (IMAC, Ni-NTA)) VHH: QVQLQESGGGLVQPGGSLRLSCAVSGSMFSIDAMGWYRQDPGEERELVAAITSGGRTSYADSVKGRFTISRDNANNAVYLQMNNLKPEDTAVYYCNADAVAPFRMTYWGKGTLVTVSS",binding result,[1],binds
same,binding result,[2],binds
